Test results taken from patent US20250163180A1 (ABL BIO, published 2025).
Blank lines part the entries; values can stand above or below the binder they belong to.

Tests used:
[1] = target: T1, human 4-1BB-Fc protein (Sino Biological) (human, UniProt Q07011 24-186); experiment: ELISA, plate coated with human 4-1BB-Fc at 0.1 ug/mL, detection with HRP-conjugated goat anti-human IgG
T1 construct: not shown: Fc part of the bought fusion protein

[2] = target: T2, human 4-1BB expressed on GloResponse NFkB-luc2/4-1BB Jurkat cells (Promega) (human, UniProt Q07011 24-255); experiment: cell-based or functional assay
T2 sequence (Q07011 24-255 limits assumed): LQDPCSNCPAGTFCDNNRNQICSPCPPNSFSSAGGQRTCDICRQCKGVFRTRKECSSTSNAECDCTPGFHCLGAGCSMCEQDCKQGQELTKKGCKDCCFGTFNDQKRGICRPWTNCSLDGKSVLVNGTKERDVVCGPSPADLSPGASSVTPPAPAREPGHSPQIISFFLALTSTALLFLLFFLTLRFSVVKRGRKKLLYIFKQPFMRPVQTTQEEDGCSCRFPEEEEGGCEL

[3] = target: T2, human 4-1BB expressed on GloResponse …; experiment: cell-based or functional assay; remark: listed apart in the source
[4] = target: T2, human 4-1BB expressed on GloResponse …; experiment: cell-based or functional assay; remark: listed apart in the source

T1 sequence (Q07011 24-186 limits assumed): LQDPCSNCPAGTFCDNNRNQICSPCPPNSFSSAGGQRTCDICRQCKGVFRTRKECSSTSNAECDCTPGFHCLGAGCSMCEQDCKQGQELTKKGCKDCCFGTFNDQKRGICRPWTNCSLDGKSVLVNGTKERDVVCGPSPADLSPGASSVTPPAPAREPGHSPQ

EC50 [1]: 0.2 nM
B1: AB41 (antibody, human IgG4 S228P, kappa, V domains shown)
VH: QVQLQQSGAEVIKPGASVKLSCKASGYTFSSYWMHWVRQAPGQGLEWIGEINPGNGHTNYNEKFKSRATLTGDTSTSTVYMELSSLRSEDTAVYYCARSFTTARAFAYWGQGTLVTVSS
VL: DIVMTQSPAFLSVTPGEKVTITCRASQTISDYLHWYQQKPDQAPKLLIKYASQSISGIPSRFSGSGSGTDFTFTISSLEAEDAATYYCQDGHSFPPTFGQGTKLEIKR
notes: also called anti-4-1BB antibody AB41

EC50, FcγRIIb-dependent 4-1BB bioassay [2]: 0.236 nM
Fold of induction (RLU), FcγRIIb-dependent 4-1BB bioassay [2]: 196 fold
fold difference in EC50 with against without FcγRIIb CHO-K1 cells [3]: 2.2 fold
fold difference in top RLU with against without FcγRIIb CHO-K1 cells [3]: 13.5 fold
EC50, FcγRIIb-independent 4-1BB bioassay [4]: 0.52 nM
Fold of induction (RLU), FcγRIIb-independent 4-1BB bioassay [4]: 15.6 fold
B2: Urelumab (antibody, V domains shown)
VH: QVQLQQWGAGLLKPSETLSLTCAVYGGSFSGYYWSWIRQSPEKGLEWIGEINHGGYVTYNPSLESRVTISVDTSKNQFSLKLSSVTAADTAVYYCARDYGPGNYDWYFDLWGRGTLVTVSS
VL: EIVLTQSPATLSLSPGERATLSCRASQSVSSYLAWYQQKPGQAPRLLIYDASNRATGIPARFSGSGSGTDFTLTISSLEPEDFAVYYCQQRSNWPPALTFGGGTKVEIK

EC50 [1]: 0.24 nM
B3: 1A10 (antibody, human IgG4 S228P, lambda, V domains shown)
VH: EVQLLESGGGLVQPGGSLRLSCAASGFTFSSYDMSWVRQAPGKGLEWVSWISYSGGSIYYADSVKGRFTISRDNSKNTLYLQMNSLRAEDTAVYYCARDGQRNSMREFDYWGQGTLVTVSS
VL: QSVLTQPPSASGTPGRRVTISCSGSSSNIGNNYVTWYQQLPGTAPKLLIYADSHRPSGVPDRFSGSKSGTSASLAISGLRSEDEADYYCATWDYSLSGYVFGGGTKLTVLG
notes: also called anti-4-1BB antibody 1A10

EC50 [1]: 0.18 nM
B4: 1A12 (antibody, human IgG4 S228P, lambda, V domains shown)
VH: EVQLLESGGGLVQPGGSLRLSCAASGFTFSGYDMSWVRQAPGKGLEWVSVIYPDDGNTYYADSVKGRFTISRDNSKNTLYLQMNSLRAEDAAVYYCAKHGGQKPTTKSSSAYGMDGWGQGTLVTVSS
VL: QSVLTQPPSASGTPGRRVTISCSGSSSNIGNNYVTWYQQLPGTAPKLLIYADSHRPSGVPDRFSGSKSGTSASLAISGLRSEDEADYYCATWDYSLSGYVFGGGTKLTVLG
notes: also called anti-4-1BB antibody 1A12
